Legend:
Format in all cases: in vivo
[1] = test system: Glyphosate-resistant Palmer amaranth plants having 49 or 63 copies EPSPS; assay: salicylic acid pretreatment before dsRNA and glyphosate (Example 15); settings: 15 millimolar SA 1, 5, or 24 hours before dsRNA; 7 days after glyphosate
Protocol: Salicylic acid (SA) induces virus resistance in tobacco; see, e.g., Chivasa et al. (1997) Plant Cell, 19:547-557. Glyphosate-resistant Palmer amaranth plants having 49 or 63 copies EPSPS were pretreated with 15 millimolar SA. A solution of the four oligonucleotide-size “short” EPSPS dsRNA molecules (described in Example 1) was applied by hand at 1, 5, or 24 hours after treatment with SA, followed 72 hours later by spraying with glyphosate (1682 g acid equivalent per hectare of Roundup® WeatherMAX® brand herbicide).

[2] = test system: glyphosate-resistant Palmer amaranth plants having 16 copies of EPSPS; assay: EPSPS tiling-segment polynucleotides, plant height 11 days after herbicide (Example 21); settings: 0.01 nanomole DNA/plant; glyphosate 840 g ae/ha 48 hours later
Description: Twelve dsRNAs of approximately 250 bp each and having one strand of the dsRNA corresponding to the EPSPS tiled DNA sequences of SEQ ID NOS:41-52 (Table 8) were designed to cover in a tiling fashion the full coding sequence and part of the 5′ and 3′ untranslated regions of the Palmer amaranth EPSPS gene, as depicted in FIG. 25A.
The four oligonucleotide-size “short” EPSPS dsRNA molecules as described in Example 1 and FIG. 1 are located in the tiling segments 2, 3, 4, and 8 respectively, and are shown as light grey bars within those segments. The polynucleotides were synthesized in vitro transcription using a pBR322 vector with the EPSPS polynucleotides inserted at EcoRI and BamHI cloning sites; plasmid DNA was isolated with Qiagen Maxi prep kits and digested with EcoRI and BamHI restriction enzymes. The digested DNA solution was used in the treatment of the plants without further purification. […]

[3] = test system: Glyphosate-sensitive Palmer amaranth (Amaranthus palmeri) plants; assay: HPPD, PPO and TIF anti-sense ssDNA with mesotrione, fomesafen or atrazine, plant height (Example 28, Tables 18 and 19); settings: four days after herbicide treatment
Protocol: The herbicidal activity of ssDNA polynucleotides that target the enzymes […] and protoporphyrinogen oxidase (PPO), and a transcription initiation factor (TIF), and their effect on the herbicide activity when used in combination with the herbicides mesotrione, fomesafen, and atrazine in Palmer amaranth was investigated.
Glyphosate-sensitive Palmer amaranth (Amaranthus palmeri) plants were grown in 4-inch square pots with Sun Gro® Redi-Earth seedling mix containing 3.5 kg/cubic meter Osmocote® 14-14-14 fertilizer in a greenhouse with 14 h photoperiod and a daytime temperature of 30 degrees Celsius and night temperature of 20 degrees Celsius. The plants were sub-irrigated as necessary.
Some plants were left untreated and were used as controls. […] Crop oil concentrate (COC) at 1% was added to all herbicide treatments.
Plant height was determined at four days after herbicide treatment. Data were collected from one experiment with four replications per treatment.

[4] = test system: phytoene desaturase (PDS) gene in tomato (Solanum lycopersicum); assay: topical PDS dsRNA on tomato, bleaching and stunting (Example 25); settings: 2.5 micromolar, 40 microliters per plant
Description: A 201 nucleotide dsRNA polynucleotide with an anti-sense strand capable of hybridizing to the RNA encoded by the sequence […] […] […] (SEQ ID NO:60) which correspond to the nucleotides at positions 1724-1923 of the mRNA transcribed from the tomato PDS gene sequence (SEQ ID NO:59) was synthesized by RT PCR using oligonucleotide primers with the sequences […] (SEQ ID NO:61, sense primer) and […] (SEQ ID NO:62, anti-sense primer). A 2.5 micromolar dsRNA solution was made with the 201 nucleotide dsRNA polynucleotide (SEQ ID NO:60) in 0.01% SILWET L-77® brand surfactant in 5 millimolar sodium phosphate buffer, pH 6.8.
Three-week old tomato seedlings were treated as follows. Two fully expanded leaves were dipped into a freshly made 0.1% SILWET L-77® brand surfactant solution in double-distilled water for a few seconds. The leaves were allowed to dry for 30 minutes to 1 hour. Each plant was then treated by applying 20 microliters dsRNA solution to the top surface of two SILWET® brand surfactant-treated leaves (total 40 microliters per plant). Control plants were treated with buffer. The plants were kept in a growth chamber for observation. FIG. 30 depicts the systemic silencing of the target gene PDS as evidenced by bleaching of the dsRNA-treated plants 30 days after topical treatment.

## O=C(O)c1ccccc1O [Salicylic acid]
[1]
  improvement of the effects of the dsRNAs and glyphosate activity (plant height): No improvement

B1: combination of tiling segments 2, 5, 8, and 11: SEQ ID NOS: 42, 45, 48, 51 applied together (nucleic acid, listed as Amaranthus palmeri)
chain 1: CACCAACCCACTTTCTCTTTGCCCACCAAAACTTTGGTTTGGTAAGAACTAAGCCCTCTTCTTTCCCTTCTCTCTCTTAAAAGCCTAAAATCCACCTAACTTTTTCAGCCAACAAACAACGCCAAATTCAGAGGAAGAATAATGATGGCTCAAGCTACTACCATCAACAATGGTGTCCATACTGGTCAATTGCACCATACTTTACCCAAAACCCAGTTACCCAAATCTTCAAAAACTCTTAATT
chain 2: GAGGGTTGTGGTGGTCTGTTTCCTGTTGGTAAAGATGGAAAGGAAGAGATTCAACTTTTCCTTGGTAATGCAGGAACAGCGATGCGCCCATTGACAGCTGCGGTTGCCGTTGCTGGAGGAAATTCAAGTTATGTGCTTGATGGAGTACCAAGAATGAGGGAGCGCCCCATTGGGGATCTGGTAGCAGGTCTAAAGCAACTTGGTTCAGATGTAGATTGTTTTCTTGGCACAAATTGCCCTCCTGTTCGGG
chain 3: ACAAGCAGTTTACAGGGTGATGTAAAATTTGCCGAAGTTCTTGAGAAGATGGGTTGCAAGGTCACCTGGACAGAGAATAGTGTAACTGTTACTGGACCACCCAGGGATTCATCTGGAAAGAAACATCTGCGTGCTATCGACGTCAACATGAACAAAATGCCAGATGTTGCTATGACTCTTGCAGTTGTTGCCTTGTATGCAGATGGGCCCACCGCCATCAGAGATGTGGCTAGCTGGAGAGTGAAGGAAA
chain 4: TAATTATGAAATTCTTTGTATTATGTTTGTGAGATTTGAAGTAGCTTATAAATTACAATGTACTAAAGTCTAGAAATAAGTTATGTATCTTTTAAATCAATGAGAAATGCATACTTGAAAGGCTTGACCTTGTATTTGTGACCTAAAGAGTACTAACTTTGGAGTTTCCAACTCATTTGTTTATCTCATTTTTTTTTAATTTTTGATTTAAATTGTTTATTTTTATGAGTAATCATGTATCTTTCTTATTCTAACCAAATGTAATACTCCTTC
[2]
  efficacy (above-ground height 11 days after herbicide; FIGS. 25B, 25C): greatest efficacy

B2: combination of tiling segments 7, 8, and 9: SEQ ID NOS: 47, 48, 49 applied together (nucleic acid, listed as Amaranthus palmeri)
chain 1: TTGAAATGACAATAAAGTTGATGGAACGCTTTGGAGTATCCGTAGAACATAGTGATAGTTGGGACAGGTTCTACATTCGAGGTGGTCAGAAATACAAATCTCCTGGAAAGGCATATGTTGAGGGTGATGCTTCAAGTGCTAGCTACTTCCTAGCCGGAGCCGCCGTCACTGGTGGGACTGTCACTGTCAAGGGTTGTGGAACAAGCAGTTTACAGGGTGATGTAAAATTTGCCGAAGTTCTTGAGAAGAT
chain 2: B1 chain 3
chain 3: AGATGGGCCCACCGCCATCAGAGATGTGGCTAGCTGGAGAGTGAAGGAAACCGAACGGATGATTGCCATTTGCACAGAACTGAGAAAGCTTGGGGCAACAGTTGAGGAAGGATCTGATTACTGTGTGATCACTCCGCCTGAAAAGCTAAACCCCACCGCCATTGAAACTTATGACGATCACCGAATGGCCATGGCATTCTCTCTTGCTGCCTGTGCAGATGTTCCCGTCACTATCCTTGATCCGGGATGC
[2]
  efficacy (above-ground height 11 days after herbicide; FIGS. 25B, 25C): greatest efficacy

B3: HPPD anti-sense ssDNA oligonucleotides: 8 HPPD anti-sense ssDNA oligonucleotides (SEQ ID NOS:141-148) (nucleic acid)
antisense 1: TCCGTAGCTTACATACCGAAG
antisense 2: TCCAAGTGAATAGGAGAAACA
antisense 3: AGCAGCTTCTGCGTCTTCTAC
antisense 4: ACAGCACGCACGCCAAGACCG
antisense 5: CGATGTAAGGAATTTGGTAAA
antisense 6: CGAGGGGATTGCAGCAGAAGA
antisense 7: GTAGGAGAATACGGTGAAGTA
antisense 8: GACCCCAAGAAAATCGTCTGC
modifications: DNA, backbone and methylation of C not given here
[3]
  growth reduction relative to the buffer-surfactant control: 32%

B4: 201 nucleotide dsRNA polynucleotide: dsRNA to positions 1724-1923 of tomato PDS mRNA (SEQ ID NO:59) (nucleic acid)
chain: TCGCAGCGACTCAGAAATTATTGATGCAACGATGAAGGAACTAGCAACGCTTTTTCCTGATGAAATTTCAGCAGATCAAAGCAAAGCAAAAATATTGAAGTACCATGTTGTCAAAACTCCGAGGTCTGTTTATAAAACTGTGCCAGGTTGTGAACCCTGTCGGCCTTTACAAAGATCCCCAATAGAGGGGTTTTATTTAG
[4]
  growth compared to control plants: severely stunted
[4]; 30 days after treatment
  systemic silencing of PDS (FIG. 30): bleaching

— patent US9121022B2, “Method for controlling herbicide-resistant plants” (priority 2010, dated 2015)
